Publication PMC8685725 (Proceedings of the National Academy of Sciences of the …, 2021)

T1: GFP-linked full-length hnRNPH1 (amino acids 2 through 449) (human (cDNA library from HEK-293T cells), UniProt P31943 2-449)
T1 sequence: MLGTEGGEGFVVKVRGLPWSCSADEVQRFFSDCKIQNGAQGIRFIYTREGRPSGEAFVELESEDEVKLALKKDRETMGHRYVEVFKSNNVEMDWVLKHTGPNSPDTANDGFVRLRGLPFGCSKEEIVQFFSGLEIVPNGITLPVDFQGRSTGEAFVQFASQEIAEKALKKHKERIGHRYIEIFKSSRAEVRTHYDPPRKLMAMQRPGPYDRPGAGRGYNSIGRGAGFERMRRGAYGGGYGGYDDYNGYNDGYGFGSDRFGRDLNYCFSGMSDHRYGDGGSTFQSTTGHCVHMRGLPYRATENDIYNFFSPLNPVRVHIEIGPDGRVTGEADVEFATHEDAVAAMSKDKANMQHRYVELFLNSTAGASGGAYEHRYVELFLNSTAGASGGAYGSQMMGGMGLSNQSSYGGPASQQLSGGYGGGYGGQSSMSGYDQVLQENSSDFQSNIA

T2: GFP:hnRNPH1-LC1, His tag cleaved, as liquid-like droplets (human (cDNA library from HEK-293T cells), UniProt P31943 192-280)
T2 sequence: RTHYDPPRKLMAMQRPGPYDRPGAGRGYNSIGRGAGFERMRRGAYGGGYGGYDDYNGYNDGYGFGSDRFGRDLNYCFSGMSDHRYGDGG

B1: mCherry-linked C-terminal half of hnRNPH1 (amino acids 192 through 449), as hydrogel droplets or polymers (domain or fragment)
chain: RTHYDPPRKLMAMQRPGPYDRPGAGRGYNSIGRGAGFERMRRGAYGGGYGGYDDYNGYNDGYGFGSDRFGRDLNYCFSGMSDHRYGDGGSTFQSTTGHCVHMRGLPYRATENDIYNFFSPLNPVRVHIEIGPDGRVTGEADVEFATHEDAVAAMSKDKANMQHRYVELFLNSTAGASGGAYEHRYVELFLNSTAGASGGAYGSQMMGGMGLSNQSSYGGPASQQLSGGYGGGYGGQSSMSGYDQVLQENSSDFQSNIA
B2: mCherry-linked LC1 domain of hnRNPH1 (amino acids 192 through 280), His tag cleaved (domain or fragment)
chain: T2 sequence

How the values were obtained:
[1] = molecular target: T1, GFP-linked full-length hnRNPH1 (amino …); test: hydrogel-binding assay
[2] = molecular target: T2, GFP:hnRNPH1-LC1, His tag cleaved, as …; test: LLD incorporation assay

Row | Binder | binding result [1] | binding result [2]
1 | B1 | binds | –
2 | B2 | – | binds
